Our source for the stoichiometry N values is article PMC12607393.

The target of test [1] is Galactia lindenii Type I lectin (GLL-I) (Galactia lindenii). As to the kind of experiment: SDS-PAGE of unheated sample; purified GLL-I (15 ug per lane) in SDS without heating, with or without DTT; Coomassie staining.
The target is the same in test [2]. The test is described as follows: SDS-PAGE of heated sample; purified GLL-I (15 ug per lane) in SDS + DTT with heating (reducing conditions); Coomassie staining.

Turning to “Galactia lindenii Type I lectin (GLL-I) (natural protein)”, the stoichiometry N in test [1] came out at 4; in test [2], 2.

In general, stoichiometry N refers to a count of units in the complex or per binding partner.
